Data reported in the supplement of paper PMC7125110.
± gives the standard error. For some of these results: Variants at the floor of the assay were thinned out.

B1: glmS ribozyme (parent)
chain: AUAAAAGCGCCAGAACUACAGAAAUGUAGUUGACGAGGAGGAGGUUUAUCGAAUUUUCGGCGGAUGCCUCCAAA

Key:
Details in all cases: with glucosamine-6-phosphate
glucosamine-6-phosphate [1] = variants of: B1; assay: kcat; higher = faster cleavage; RNA array
How it was run: (§1)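 Tracking of barcoded ribozyme variants used a hybridised Cy3 probe at 37 °C, after in situ transcription by E. coli RNA polymerase on sequenced MiSeq chips. The flowed solution held 40 μM to 10 mM glucosamine-6-phosphate in HEPES/KCl/Mg(OAc)2 buffer, and imaging ran over ~14 h. kobs was taken from exponential decay fits of normalised per-tile medians, and kcat and KM from weighted Michaelis–Menten fits.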

glucosamine-6-phosphate [2] = variants of: B1; assay: KM; higher = weaker cofactor use; RNA array
How it was run: as §1

glucosamine-6-phosphate [3] = variants of: B1; assay: self-cleavage kobs at 40 uM GlcN6P; higher = faster cleavage; RNA array
How it was run: as §1

glucosamine-6-phosphate [4] = variants of: B1; assay: self-cleavage kobs at 160 uM GlcN6P; higher = faster cleavage; RNA array
How it was run: as §1

glucosamine-6-phosphate [5] = variants of: B1; assay: self-cleavage kobs at 640 uM GlcN6P; higher = faster cleavage; RNA array
How it was run: as §1

glucosamine-6-phosphate [6] = variants of: B1; assay: self-cleavage kobs at 2500 uM GlcN6P; higher = faster cleavage; RNA array
How it was run: as §1

glucosamine-6-phosphate [7] = variants of: B1; assay: self-cleavage kobs at 10000 uM GlcN6P; higher = faster cleavage; RNA array
How it was run: as §1

## A39G U55A
glucosamine-6-phosphate [1]
  kcat: 0.0158 ± 0.0027 s⁻¹
glucosamine-6-phosphate [2]
  KM: 0.399 ± 0.11 mM
glucosamine-6-phosphate [3]
  self-cleavage kobs at 40 uM GlcN6P: 0.00131 ± 0.00023 s⁻¹
glucosamine-6-phosphate [4]
  self-cleavage kobs at 160 uM GlcN6P: 0.00551 ± 0.0011 s⁻¹
glucosamine-6-phosphate [5]
  self-cleavage kobs at 640 uM GlcN6P: 0.0115 ± 0.0025 s⁻¹
glucosamine-6-phosphate [6]
  self-cleavage kobs at 2500 uM GlcN6P: 0.0107 ± 0.0029 s⁻¹
glucosamine-6-phosphate [7]
  self-cleavage kobs at 10000 uM GlcN6P: 0.017 ± 0.0039 s⁻¹

## A33U U69A
glucosamine-6-phosphate [1]
  kcat: 2.24e-05 ± 3e-06 s⁻¹
glucosamine-6-phosphate [3]
  self-cleavage kobs at 40 uM GlcN6P: < 1e-05 s⁻¹

## G38A C50G G63U C71A
glucosamine-6-phosphate [1]
  kcat: 4.03e-05 ± 1.2e-05 s⁻¹
glucosamine-6-phosphate [4]
  self-cleavage kobs at 160 uM GlcN6P: 7.25e-05 ± 2.2e-05 s⁻¹
glucosamine-6-phosphate [5]
  self-cleavage kobs at 640 uM GlcN6P: 4.7e-05 ± 2.1e-05 s⁻¹
glucosamine-6-phosphate [6]
  self-cleavage kobs at 2500 uM GlcN6P: 3.94e-05 ± 1.3e-05 s⁻¹

## A39C U57A
glucosamine-6-phosphate [1]
  kcat: 2.13e-05 ± 6e-06 s⁻¹
glucosamine-6-phosphate [3]
  self-cleavage kobs at 40 uM GlcN6P: < 1e-05 s⁻¹
glucosamine-6-phosphate [6]
  self-cleavage kobs at 2500 uM GlcN6P: 2.6e-05 ± 1.3e-05 s⁻¹

## G37A U45G C70G
glucosamine-6-phosphate [1]
  kcat: 1.07e-05 ± 4e-06 s⁻¹

## A39C G44C
glucosamine-6-phosphate [1]
  kcat: 1.03e-05 ± 1.3e-06 s⁻¹
glucosamine-6-phosphate [2]
  KM: 3.63 ± 1.2 mM
glucosamine-6-phosphate [4]
  self-cleavage kobs at 160 uM GlcN6P: < 1e-05 s⁻¹

## A39C G44U
glucosamine-6-phosphate [1]
  kcat: 4.89e-05 ± 4.8e-06 s⁻¹
glucosamine-6-phosphate [2]
  KM: 4.08 ± 1.2 mM
glucosamine-6-phosphate [7]
  self-cleavage kobs at 10000 uM GlcN6P: 3.48e-05 ± 8.8e-06 s⁻¹

## C34G C71G
glucosamine-6-phosphate [1]
  kcat: 2.07e-05 ± 5.7e-06 s⁻¹

## C34A C71G
glucosamine-6-phosphate [1]
  kcat: 1.15e-05 ± 3.9e-06 s⁻¹
glucosamine-6-phosphate [4]
  self-cleavage kobs at 160 uM GlcN6P: < 1e-05 s⁻¹

## A33U U47C
glucosamine-6-phosphate [1]
  kcat: 3.28e-05 ± 1.2e-05 s⁻¹
glucosamine-6-phosphate [3]
  self-cleavage kobs at 40 uM GlcN6P: < 1e-05 s⁻¹
glucosamine-6-phosphate [7]
  self-cleavage kobs at 10000 uM GlcN6P: 3.01e-05 ± 1.1e-05 s⁻¹

## G37C U69G
glucosamine-6-phosphate [1]
  kcat: 2.05e-05 ± 4e-06 s⁻¹

## C34U G51A
glucosamine-6-phosphate [1]
  kcat: 5.64e-05 ± 4.4e-06 s⁻¹
glucosamine-6-phosphate [2]
  KM: 2.71 ± 0.75 mM
glucosamine-6-phosphate [7]
  self-cleavage kobs at 10000 uM GlcN6P: 4.45e-05 ± 8.4e-06 s⁻¹

## A33U U56G
glucosamine-6-phosphate [1]
  kcat: 3.36e-05 ± 2.8e-06 s⁻¹
glucosamine-6-phosphate [2]
  KM: 3.37 ± 0.93 mM

## A33U U56A
glucosamine-6-phosphate [1]
  kcat: 3.49e-05 ± 1.6e-05 s⁻¹

## A36U A64G C70U
glucosamine-6-phosphate [1]
  kcat: 6.13e-05 ± 1.3e-05 s⁻¹
glucosamine-6-phosphate [6]
  self-cleavage kobs at 2500 uM GlcN6P: 7.29e-05 ± 2.6e-05 s⁻¹
glucosamine-6-phosphate [7]
  self-cleavage kobs at 10000 uM GlcN6P: 5.17e-05 ± 1.8e-05 s⁻¹

## A33U A52G
glucosamine-6-phosphate [1]
  kcat: 3.65e-05 ± 1.3e-05 s⁻¹
glucosamine-6-phosphate [7]
  self-cleavage kobs at 10000 uM GlcN6P: 1.94e-05 ± 7.9e-06 s⁻¹

## A33U A52U
glucosamine-6-phosphate [1]
  kcat: 1.29e-05 ± 2.5e-06 s⁻¹
glucosamine-6-phosphate [2]
  KM: 8.3 ± 3.4 mM

## G37A G41U
glucosamine-6-phosphate [1]
  kcat: 0.000119 ± 2.1e-05 s⁻¹
glucosamine-6-phosphate [5]
  self-cleavage kobs at 640 uM GlcN6P: 4.8e-05 ± 1.3e-05 s⁻¹
glucosamine-6-phosphate [6]
  self-cleavage kobs at 2500 uM GlcN6P: 0.000126 ± 1.7e-05 s⁻¹
glucosamine-6-phosphate [7]
  self-cleavage kobs at 10000 uM GlcN6P: 0.0001 ± 1.2e-05 s⁻¹

## G37A C71G
glucosamine-6-phosphate [1]
  kcat: 0.000188 ± 2.3e-05 s⁻¹
glucosamine-6-phosphate [2]
  KM: 2.37 ± 0.69 mM
glucosamine-6-phosphate [4]
  self-cleavage kobs at 160 uM GlcN6P: 3.34e-05 ± 1.4e-05 s⁻¹
glucosamine-6-phosphate [5]
  self-cleavage kobs at 640 uM GlcN6P: 4.08e-05 ± 7.8e-06 s⁻¹
glucosamine-6-phosphate [6]
  self-cleavage kobs at 2500 uM GlcN6P: 9.24e-05 ± 9.5e-06 s⁻¹
glucosamine-6-phosphate [7]
  self-cleavage kobs at 10000 uM GlcN6P: 0.000155 ± 1.4e-05 s⁻¹

## G35U G43U
glucosamine-6-phosphate [1]
  kcat: < 1e-05 s⁻¹
glucosamine-6-phosphate [5]
  self-cleavage kobs at 640 uM GlcN6P: < 1e-05 s⁻¹
glucosamine-6-phosphate [6]
  self-cleavage kobs at 2500 uM GlcN6P: < 1e-05 s⁻¹

## A36G C71G
glucosamine-6-phosphate [1]
  kcat: 1.32e-05 ± 3.6e-06 s⁻¹
glucosamine-6-phosphate [5]
  self-cleavage kobs at 640 uM GlcN6P: < 1e-05 s⁻¹

## C34G C67G
glucosamine-6-phosphate [1]
  kcat: 4.36e-05 ± 2.1e-05 s⁻¹
glucosamine-6-phosphate [6]
  self-cleavage kobs at 2500 uM GlcN6P: 4.65e-05 ± 1.9e-05 s⁻¹

## A39G A53G C67G
glucosamine-6-phosphate [1]
  kcat: 0.00302 ± 0.001 s⁻¹
glucosamine-6-phosphate [3]
  self-cleavage kobs at 40 uM GlcN6P: 0.000234 ± 7.2e-05 s⁻¹
glucosamine-6-phosphate [4]
  self-cleavage kobs at 160 uM GlcN6P: 0.000647 ± 0.00024 s⁻¹
glucosamine-6-phosphate [5]
  self-cleavage kobs at 640 uM GlcN6P: 0.00135 ± 0.00029 s⁻¹
glucosamine-6-phosphate [6]
  self-cleavage kobs at 2500 uM GlcN6P: 0.00536 ± 0.0012 s⁻¹
glucosamine-6-phosphate [7]
  self-cleavage kobs at 10000 uM GlcN6P: 0.00257 ± 0.00072 s⁻¹

## C34U G60A
glucosamine-6-phosphate [1]
  kcat: < 1e-05 s⁻¹
glucosamine-6-phosphate [5]
  self-cleavage kobs at 640 uM GlcN6P: < 1e-05 s⁻¹
glucosamine-6-phosphate [7]
  self-cleavage kobs at 10000 uM GlcN6P: < 1e-05 s⁻¹

## A39C C58U
glucosamine-6-phosphate [1]
  kcat: 1.02e-05 ± 1.6e-06 s⁻¹
